Laboratory results from patent US12227579B2, “Bispecific antibody targeting IL-1R1 and NLPR3” (University of Ulster, priority 2018, dated 2025).

How the values were obtained:
[1] = system: microbead-induced mouse model of glaucoma; assay: Microbead-induced mouse model of glaucoma; type: in vivo
Procedure: In the current study, WT C57BL/6J mice are receiving a single intravitreal injection of Inflamab (final vitreous concentration of 2.5, 25, or 250 ng/ml) on Day 0, immediately preceding the injection of microbeads and mice receiving saline only (no beads) are serving as a non-glaucoma control. RGC function is currently being measured by pERG using a fully integrated ERG system for rodents (Celeris). Changes in pERG amplitude is being measured in mice that received microbeads only and compared to mice that received microbeads plus Inflamab (final vitreous concentration of 2.5, 25, and 250 ng/ml) or saline only (no beads) [FIG. 42]. […] Visual acuity using an optomotor reflex-based spatial frequency threshold test, as well as RGC and axon quantification, is performed to further corroborate the neuroprotective effect of Inflamab and including additional control groups (microbead-injected mice treated with the appropriate IgG control antibody).
RGC analysis in WT mice treated with the NLRP3 inhibitor MCC950—see FIG. 41. […]
RGC function in WT mice treated with the NLRP3 inhibitor InflaMab—see FIG. 42. […] RGC function was measured by pERG using a fully integrated ERG system for rodents (Celeris) and changes in pERG amplitude was measured in mice that received microbeads only and compared to mice that received microbeads plus Inflamab (2.5, 25, and 250 ng/ml) or saline only (no beads). […]

[2] = system: THP1 cells; assay: Caspase-1 activation in THP1 cells (FAM-FLICA staining, confocal); type: cell-based
Procedure: THP1 cells, for FIG. 34, were cultured in 96-well plates at 100,000 cells/200 ul complete media. PMA ([…] for 72 hours) was used to differentiated THP-1 cells into macrophages. Following 24 hours of rest, differentiated THP1 cells were stimulated with LPS (1 ug/ml) for 3 hours, treated with the IL-1R1/NLRP3 Ab (1 ug/ml) for 30 minutes, followed by ATP (5 mM) for 1 hour. Caspase-1 activation was assessed by staining cells with a non-cytotoxic Fluorescent Labelled Inhibitor of Caspase-1 (FAM-FLICA) and DAPI (nuclear stain). Cells were treated with LPS alone (negative control), LPS+ATP (positive control), mouse IgG2a (1 ug/ml, Ab control), or IL-1 r/NLRP3 bi-specific Ab (1 ug/ml, experimental). Representative confocal images are shown for each group. Green=active caspae-1 and blue=Dapi/nuclear stain.
(§1) Internalization of Inflamab—see FIG. 35. THP1 cells, for FIG. 35, were cultured in 96-well plates at 100,000 cells/200 ul complete media. Differentiation of THP1 cells was induced by PMA (100 ug/ml for 72 hours). Following 24 hours of rest, differentiated THP1 cells were stimulated with LPS (1 ug/ml) for 3 hours, treated with a pHrodo red labelled IL-1 r/NLRP3 Ab (1 ug/ml) for 30 minutes, followed by ATP (5 mM) for 1 hour. The internalization of the Ab was tracked using a pHrodo red labelled bi-specific Ab that only fluoresces when internalized.

[3] = system: THP1 cells; assay: IL-1β release from LPS/ATP-stimulated differentiated THP1 cells (ELISA); type: cell-based; settings: PMA-differentiated THP1, LPS 1 μg/ml 3 h, Ab 0.0025-2.5 ng/ml (FIG. 33a) or 1 nM (FIG. 33b) 30 min, ATP 5 mM 1 h; supernatant ELISA
Procedure: THP1 cells, for FIGS. 33a and b, were cultured in 96-well plates at 100,000 cells/200 μl complete media. PMA (100 μg/ml for 72 hours) was used to differentiate THP-1 cells into macrophages. Following 24 hours of rest, differentiated THP1 cells were stimulated with LPS (1 μg/ml) for 3 hours, treated with MCC950 (1 μM) or the IL-1R1/NLRP3 Ab in a dose dependent fashion from 0.0025 ng/ml to 2.5 ng/ml for FIG. 33a or with IL-1R1/NLRP3 Ab (1 nM) for FIG. 33b or with IgG control antibody for 30 minutes, followed by ATP (5 mM) for 1 hour. IL-1 release was measured in the supernatant by ELISA.

[4] = system: THP1 cells; assay: Internalization of pHrodo red labelled bi-specific Ab in THP1 cells; type: cell-based; settings: pHrodo red labelled Ab 1 ug/ml 30 min, LPS then ATP; confocal image
Procedure: as §1

[5] = molecular target: NLRP3 inflammasome (Homo sapiens, UniProt Q96P20); assay: NLRP3 assembly in vitro assay; settings: among hybridoma clones
Chain of NLRP3 inflammasome (Q96P20 whole entry): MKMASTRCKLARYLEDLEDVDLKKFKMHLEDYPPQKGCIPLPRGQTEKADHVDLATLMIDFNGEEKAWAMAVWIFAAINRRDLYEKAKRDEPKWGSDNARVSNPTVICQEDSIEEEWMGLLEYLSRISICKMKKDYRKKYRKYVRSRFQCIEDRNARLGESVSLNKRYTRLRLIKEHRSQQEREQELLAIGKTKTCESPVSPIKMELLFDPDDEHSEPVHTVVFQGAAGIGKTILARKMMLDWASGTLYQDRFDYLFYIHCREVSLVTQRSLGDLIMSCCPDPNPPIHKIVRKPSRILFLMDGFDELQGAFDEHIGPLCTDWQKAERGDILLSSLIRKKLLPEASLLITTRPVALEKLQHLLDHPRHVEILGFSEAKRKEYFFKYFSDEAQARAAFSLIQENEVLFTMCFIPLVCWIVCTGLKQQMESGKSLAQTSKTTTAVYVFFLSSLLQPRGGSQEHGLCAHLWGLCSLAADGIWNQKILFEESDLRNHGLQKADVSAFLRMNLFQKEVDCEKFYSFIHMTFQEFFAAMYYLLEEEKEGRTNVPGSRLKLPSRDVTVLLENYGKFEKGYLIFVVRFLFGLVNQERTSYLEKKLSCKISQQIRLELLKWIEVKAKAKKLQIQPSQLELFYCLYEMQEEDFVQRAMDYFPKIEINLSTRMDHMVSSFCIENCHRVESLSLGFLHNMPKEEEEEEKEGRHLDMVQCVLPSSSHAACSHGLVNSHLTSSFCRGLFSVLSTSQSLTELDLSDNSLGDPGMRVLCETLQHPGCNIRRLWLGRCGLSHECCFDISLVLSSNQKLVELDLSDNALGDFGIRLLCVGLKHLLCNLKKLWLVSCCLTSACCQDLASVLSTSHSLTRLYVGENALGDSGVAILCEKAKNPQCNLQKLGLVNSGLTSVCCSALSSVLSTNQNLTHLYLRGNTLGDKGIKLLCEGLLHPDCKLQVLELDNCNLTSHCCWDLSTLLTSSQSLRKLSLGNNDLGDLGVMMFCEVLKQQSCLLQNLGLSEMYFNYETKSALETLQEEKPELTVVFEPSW

B1: InflaMab: 210 kDa bispecific mouse antibody against IL-1R1 and NLRP3; light chain SEQ ID NO: 57, heavy chain SEQ ID NO: 59 (antibody)
heavy: MGWTLVFLFLLSVTAGVHSQIQLVQSGPELRKPGETVRISCKASGYPFTTAGLQWVQKMSGKGLKWIGWMNTQSEVPKYAEEFKGRIAFSLETAASTAYLQINNLKTEDTATYFCAKSVYFNWRYFDVWGAGTTVTVSSAKTTAPSVYPLAPVCGDTTGSSVTLGCLVKGYFPEPVTLTWNSGSLSSGVHTFPAVLQSDLYTLSSSVTVTSSTWPSQSITCNVAHPASSTKVDKKIEPRGPTIKPCPPCKCPAPNLLGGPSVFIFPPKIKDVLMISLSPIVTCVVVDVSEDDPDVQISWFVNNVEVHTAQTQTHREDYNSTLRVVSALPIQHQDWMSGKEFKCKVNNKDLPAPIERTISKPKGSVRAPQVYVLPPPEEEMTKKQVTLTCMVTDFMPEDIYVEWTNNGKTELNYKNTEPVLDSDGSYFMYSKLRVEKKNWVERNSYSCSVVHEGLHNHHTTKSFSRTPGKGSAGGSGGDSEVQLVESGGGLVKPGGSLKLSCAASGFTFSDYYMYWVRQTPEKRLEWVATISDGGTYTYYPDSVKGRFTISRDNAKNNLYLQMNSLKSEDTAMYYCARGWVSTMVKLLSSFPYWGQGTLVTVSAGGGGSGGGGSGGGGSQAVVTQESALTTSPGETVTLTCRSSTGAVTTSNYANWVQEKPDHLFTGLIGGTNNRAPGVPARFSGSLIGDKAALTITGAQTEDEAIYFCALWYSNYWVFGGGTKLTVLGQPK
light: MVSSAQFLGLLLLCFQGTRCDIVMTQSPATLSVTPGDRVSLSCRASQSISDYLSWYQQRSHESPRLIIKYASQSISGIPSRFSGSGSGSDFTLSINSVEPEDVGVYYCQHGHSFPLTFGSGTKLELKRADAAPTVSIFPPSSEQLTSGGASVVCFLNNFYPKDINVKWKIDGSERQNGVLNSWTDQDSKDSTYSMSSTLTLTKDEYERHNSYTCEATHKTSTSPIVKSFNRNEC
[1]; InflaMab, FIG. 42 title
  death of RGCs: prevents death of RGCs
[1]; single intravitreal injection Day 0, final vitreous concentration 250 ng/ml, compared to microbeads only or Inflamab at 2.5 or 25 ng/ml, preliminary
  RGC function (pERG amplitude): recovery of RGC function
[2]; differentiated THP1, LPS 1 ug/ml 3 h, Ab 1 ug/ml 30 min, ATP 5 mM 1 h, FAM-FLICA
  caspase-1 activation: prevents caspase-1 activation
[2]; pHrodo red labelled Ab 1 ug/ml, compared to THP1 cells that did not internalize the Ab
  caspase-1 activation in THP1 cells that have internalized the Ab: significant reduction of caspase-1 activation
[3]
  IL-1β release: prevents IL-1β release
[4]
  internalization of the Ab: internalization

B2: F226 7A7-1E1-2D5: anti-NLRP3 monoclonal antibody from hybridoma clone, sequenced and used in the bispecific (antibody, V domains shown)
VH: EVQLVESGGGLVKPGGSLKLSCAASGFTFSDYYMYWVRQTPEKRLEWVATISDGGTYTYYPDSVKGRFTISRDNAKNNLYLQMNSLKSEDTAMYYCARGWVSTMVKLLSSFPYWGQGTLVTVSAAKTTPPSVYPLA
VL: QAVVTQESALTTSPGETVTLTCRSSTGAVTTSNYANWVQEKPDHLFTGLIGGTNNRAPGVPARFSGSLIGDKAALTITGAQTEDEAIYFCALWYSNYWVFGGGTKLTVLGQPKSSPSVTLFPPSTEKLSL
[5]
  preventing NLRP3 assembly: most active
